# Assay results published in IntAct's records for PubMed 18930710.
# B1: Ras-related protein Rap-2a (Homo sapiens), P10114 (parent)
# chain: MREYKVVVLGSGGVGKSALTVQFVTGTFIEKYDPTIEDFYRKEIEVDSSPSVLEILDTAGTEQFASMRDLYIKNGQGFILVYSLVNQQSFQDIKPMRDQIIRVKRYEKVPVILVGNKVDLESEREVSSSEGRALAEEWGCPFMETSAKSKTMVDELFAEIVRQMNYAAQPDKDDPCCSACNIQ
# Variants of: B1
# Conditions: with mink1_human MINK1, Q8N4C8
# mink1_human MINK1, Q8N4C8, sequence (Q8N4C8 whole entry, looked up): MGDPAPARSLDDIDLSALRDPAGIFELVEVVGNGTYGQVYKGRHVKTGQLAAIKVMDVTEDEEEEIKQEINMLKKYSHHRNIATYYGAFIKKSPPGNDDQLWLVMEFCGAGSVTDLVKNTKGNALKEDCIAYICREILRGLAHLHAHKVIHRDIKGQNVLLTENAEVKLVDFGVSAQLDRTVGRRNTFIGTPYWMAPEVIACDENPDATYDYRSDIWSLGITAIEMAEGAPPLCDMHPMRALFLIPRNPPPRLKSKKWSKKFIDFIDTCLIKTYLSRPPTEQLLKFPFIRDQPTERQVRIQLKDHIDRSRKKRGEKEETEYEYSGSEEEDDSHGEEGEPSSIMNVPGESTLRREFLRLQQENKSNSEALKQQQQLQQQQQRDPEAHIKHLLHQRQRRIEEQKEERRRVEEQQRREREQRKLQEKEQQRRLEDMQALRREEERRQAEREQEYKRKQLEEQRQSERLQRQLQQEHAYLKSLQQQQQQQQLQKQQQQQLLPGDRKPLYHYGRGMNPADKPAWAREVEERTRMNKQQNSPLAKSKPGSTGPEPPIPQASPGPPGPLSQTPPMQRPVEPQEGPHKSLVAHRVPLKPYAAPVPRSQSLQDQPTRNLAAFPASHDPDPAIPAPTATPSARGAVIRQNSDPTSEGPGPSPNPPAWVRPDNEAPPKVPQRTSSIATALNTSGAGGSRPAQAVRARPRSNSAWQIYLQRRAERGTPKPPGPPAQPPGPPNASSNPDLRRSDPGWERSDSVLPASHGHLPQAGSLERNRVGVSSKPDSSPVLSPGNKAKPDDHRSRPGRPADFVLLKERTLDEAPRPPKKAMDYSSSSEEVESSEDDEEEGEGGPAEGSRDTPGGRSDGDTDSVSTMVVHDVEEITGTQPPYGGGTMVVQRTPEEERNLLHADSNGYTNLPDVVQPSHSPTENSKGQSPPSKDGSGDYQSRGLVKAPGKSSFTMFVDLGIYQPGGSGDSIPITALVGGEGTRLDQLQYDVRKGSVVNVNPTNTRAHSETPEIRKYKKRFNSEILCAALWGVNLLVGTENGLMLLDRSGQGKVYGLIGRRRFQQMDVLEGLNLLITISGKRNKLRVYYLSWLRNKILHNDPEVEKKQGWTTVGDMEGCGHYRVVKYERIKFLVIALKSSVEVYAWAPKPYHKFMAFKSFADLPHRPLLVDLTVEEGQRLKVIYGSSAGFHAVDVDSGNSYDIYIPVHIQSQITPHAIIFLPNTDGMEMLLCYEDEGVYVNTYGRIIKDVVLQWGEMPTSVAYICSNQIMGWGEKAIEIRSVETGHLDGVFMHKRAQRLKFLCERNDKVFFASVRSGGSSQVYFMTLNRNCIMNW
row,Variant,effect of a mutation on the interaction
1,S17N,disrupting interaction
2,F39S,disrupting interaction

# Variants of: B1
# Conditions: with mink1_mouse Mink1, Q9JM52
# mink1_mouse Mink1, Q9JM52, sequence (Q9JM52 whole entry): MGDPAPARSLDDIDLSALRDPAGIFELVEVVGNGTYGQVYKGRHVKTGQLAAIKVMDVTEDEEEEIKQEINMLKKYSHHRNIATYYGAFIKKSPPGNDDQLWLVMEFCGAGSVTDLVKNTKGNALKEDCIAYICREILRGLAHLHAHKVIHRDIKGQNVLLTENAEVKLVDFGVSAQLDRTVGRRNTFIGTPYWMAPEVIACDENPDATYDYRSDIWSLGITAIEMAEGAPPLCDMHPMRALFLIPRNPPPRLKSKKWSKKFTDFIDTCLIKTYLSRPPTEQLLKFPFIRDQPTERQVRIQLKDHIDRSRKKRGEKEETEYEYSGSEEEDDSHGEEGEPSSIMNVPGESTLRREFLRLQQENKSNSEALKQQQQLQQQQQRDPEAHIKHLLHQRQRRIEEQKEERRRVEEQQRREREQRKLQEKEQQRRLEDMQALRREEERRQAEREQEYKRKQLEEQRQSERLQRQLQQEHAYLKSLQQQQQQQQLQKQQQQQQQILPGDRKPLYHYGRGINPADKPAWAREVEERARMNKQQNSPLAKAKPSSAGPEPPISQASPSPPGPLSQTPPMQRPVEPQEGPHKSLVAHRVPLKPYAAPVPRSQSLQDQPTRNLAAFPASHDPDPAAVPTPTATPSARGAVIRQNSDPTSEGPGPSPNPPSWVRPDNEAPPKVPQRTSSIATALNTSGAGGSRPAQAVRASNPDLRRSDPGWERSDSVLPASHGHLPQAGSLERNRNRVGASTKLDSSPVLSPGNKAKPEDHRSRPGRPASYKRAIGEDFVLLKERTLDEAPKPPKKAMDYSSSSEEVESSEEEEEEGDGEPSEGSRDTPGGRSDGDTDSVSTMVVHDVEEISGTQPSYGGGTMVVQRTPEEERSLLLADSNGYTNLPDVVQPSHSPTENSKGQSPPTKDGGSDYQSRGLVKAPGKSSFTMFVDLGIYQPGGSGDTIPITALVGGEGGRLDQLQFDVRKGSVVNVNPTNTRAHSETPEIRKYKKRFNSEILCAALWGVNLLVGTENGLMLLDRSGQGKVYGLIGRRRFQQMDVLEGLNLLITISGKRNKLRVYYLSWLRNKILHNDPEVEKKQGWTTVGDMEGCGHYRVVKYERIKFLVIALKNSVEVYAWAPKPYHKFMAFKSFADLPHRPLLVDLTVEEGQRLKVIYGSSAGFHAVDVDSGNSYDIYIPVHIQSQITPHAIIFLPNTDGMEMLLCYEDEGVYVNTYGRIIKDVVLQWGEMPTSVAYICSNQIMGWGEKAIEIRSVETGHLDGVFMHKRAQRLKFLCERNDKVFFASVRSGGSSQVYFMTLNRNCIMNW
row,Variant,effect of a mutation on the interaction
1,F39S,decreasing interaction
